# Source: PMC8136821
# Target: H. pylori RNase R (HpRNase R), recombinant, His-tagged (H. pylori)
# Assay: AUC
# Sequence of H. pylori RNase R (HpRNase R), recombinant, His-tagged (H. pylori) (P56123 whole entry): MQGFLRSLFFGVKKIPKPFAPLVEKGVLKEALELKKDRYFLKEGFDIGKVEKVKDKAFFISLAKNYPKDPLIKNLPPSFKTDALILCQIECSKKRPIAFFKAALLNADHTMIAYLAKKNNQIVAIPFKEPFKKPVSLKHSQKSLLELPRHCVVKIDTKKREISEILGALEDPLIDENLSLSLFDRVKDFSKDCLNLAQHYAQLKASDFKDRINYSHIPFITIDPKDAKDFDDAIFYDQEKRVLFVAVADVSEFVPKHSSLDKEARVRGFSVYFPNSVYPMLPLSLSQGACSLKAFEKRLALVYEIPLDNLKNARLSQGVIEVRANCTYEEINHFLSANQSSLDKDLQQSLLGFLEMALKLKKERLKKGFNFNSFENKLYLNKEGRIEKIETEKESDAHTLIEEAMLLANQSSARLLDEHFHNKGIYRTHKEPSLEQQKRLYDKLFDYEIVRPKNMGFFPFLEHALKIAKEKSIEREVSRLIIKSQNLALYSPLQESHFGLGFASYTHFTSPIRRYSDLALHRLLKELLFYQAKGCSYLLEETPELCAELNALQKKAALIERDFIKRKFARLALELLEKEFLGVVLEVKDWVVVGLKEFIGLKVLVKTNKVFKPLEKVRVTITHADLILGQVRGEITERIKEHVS
# Sequence of RhpA DEAD-box RNA helicase of H. pylori, recombinant, His-tagged (enzyme) (B9XXL6 whole entry): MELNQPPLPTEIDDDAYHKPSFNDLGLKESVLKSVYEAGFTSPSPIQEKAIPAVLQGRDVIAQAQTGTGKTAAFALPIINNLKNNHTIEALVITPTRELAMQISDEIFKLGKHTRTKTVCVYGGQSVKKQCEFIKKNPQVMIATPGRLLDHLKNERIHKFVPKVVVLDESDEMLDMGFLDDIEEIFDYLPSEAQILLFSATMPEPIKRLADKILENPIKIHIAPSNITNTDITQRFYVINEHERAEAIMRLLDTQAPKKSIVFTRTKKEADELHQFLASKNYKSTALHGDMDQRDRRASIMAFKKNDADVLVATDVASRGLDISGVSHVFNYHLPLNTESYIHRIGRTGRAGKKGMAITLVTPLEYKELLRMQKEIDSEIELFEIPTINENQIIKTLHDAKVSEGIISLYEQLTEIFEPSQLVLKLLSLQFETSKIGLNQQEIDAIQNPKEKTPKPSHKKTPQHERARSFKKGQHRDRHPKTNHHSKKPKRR
substance,measurement,value
"RhpA DEAD-box RNA helicase of H. pylori, recombinant, His-tagged (enzyme)",stoichiometry N,1
